Changes are numbered by the printed parent chain.
B1: antibody 58-1 (antibody, V domains shown)
VH: QSVEESGGRLVMPGGSLTLTCTVSGIDLSRYGMAWFRQAPGKGLKYIGAISSSGNEDYASWAIGRFTISKTSTTAELKMTSLTTEDTATYFCGRGWLSNNAYMWGPGTLVTVSS
VL: PVLTQTPTPVSAAVGGTVTINCQASQSIYNKNQLSWFQQKPGQPPKLLIHYASTLASGVSSRFKGSGSGTQFTLTISDVQCDDAATYYCLGDFSCSGVDCLVVGGGTEVVVEG
B2: antibody 72-3 (antibody, V domains shown)
VH: B1 VH with R30H, K45E, A62P, I63K, A75V, E76T, A101V
VL: B1 VL with P1Q, T8P, P9S, F37L, L47V, V102S

Target: partially (~50%) activated 3954-1204-c225v5
Experiment: sandwich ELISA in human plasma; clone 41 coated as capture, biotinylated detection antibody, streptavidin-HRP, OD 450 nm

signal relative to the signal for intact 3954-1204-c225v5 | Binder
50 % lower | B1
50 % lower | B2
